Residue numbers refer to the chain shown, from its start. In names and notes the source's numbering stands. Like-named read-outs stand apart in the source and are kept apart here.

B1: Pyrococcus furiosus RNase P protein RPP21 (natural protein)
chain: MAKYNEKKEKKRIAKERIDILFSLAERVFPYSPELAKRYVELALLVQQKAKVKIPRKWKRRYCKKCHAFLVPGINARVRLRQKRMPHIVVKCLECGHIMRYPYIKEIKKRRKEKMEY
B2: Pyrococcus furiosus RPP21/A14V (natural protein)
chain: B1 chain with A14V
B3: Pyrococcus furiosus RNase P protein RPP29 (natural protein)
chain: MWRNSEERENRTSGRSQGSYQEIIGRTWIFRGAHRGRVNKKNIVWHELIGLKVRVVNSTHPGYVGIEGYVIDETRNMLVIAGENKVWKVPKDVCIFEFETWDGTKIKISGEKLVGRPEMRLKKRWRK

Test in all cases: ITC
(In general: Isothermal titration calorimetry measures the heat released or taken up as one component is titrated into another.)

In test [1] the target is B3.
For test [2], the target named is B3. The source holds these as a separate data set.
The target in test [3] is B3. The source holds these as a separate data set.
For test [4], the target named is B3. This is another data set of the same source.
Test [5] addresses B3. This is another data set of the same source.
The target in test [6] is B3. The source holds these as a separate data set.
The target in test [7] is B3. This is another data set of the same source.
Test [8] concerns the target B3. This is another data set of the same source.
The target of test [9] is B3. This is another data set of the same source.
For test [10], the target named is B1.
Test [11] concerns the target B1. The source holds these as a separate data set.
For test [12], the target named is B1. This is another data set of the same source.
In test [13] the target is B1. This is another data set of the same source.
The target in test [14] is B1. This is another data set of the same source.
In test [15] the target is B1. The source holds these as a separate data set.
The target of test [16] is B1. This is another data set of the same source.
The target in test [17] is B1. The source holds these as a separate data set.
Test [18] concerns the target B1. This is another data set of the same source.
Test [19] deals with B1. The source holds these as a separate data set.
Test [20] deals with B1. The source holds these as a separate data set.

On to B1, for which the Ka in test [1] stood at 1.09e+07 M⁻¹; in [2], 2.01e+07 M⁻¹; in [3], 1.71e+07 M⁻¹; in [4], 1.07e+07 M⁻¹; in test [5], 9.55e+06 M⁻¹; in test [6] it was 3.32e+07 M⁻¹. Further, the Ka in [7] amounted to 9.17e+06 M⁻¹; in test [8], 2.04e+06 M⁻¹.

B2: the binding result in test [9] was “binds”.

For orientation: stoichiometry N means the number of molecules, sites or subunits per partner or assembly. As to B3, the dH in test [10] was -43 kcal/mol; in test [11], -37.6 kcal/mol; in test [12], -34.3 kcal/mol; in [13], 11.6 kcal/mol; in test [14] it was -10.2 kcal/mol; in [15], -15.8 kcal/mol. Further, the dH in test [16] is -23.5 kcal/mol; in test [17], 5.95 kcal/mol; in test [18], -5.19 kcal/mol; in [19] it was 17.1 kcal/mol; in test [20] it was -32 kcal/mol. Moreover, the “stoichiometry N” value is 1.01 RPP29 per RPP21 in [13]; 0.998 RPP29 per RPP21 in [14]; 1.03 RPP29 per RPP21 in test [15]; 1 RPP29 per RPP21 in test [16]; 0.9 RPP29 per RPP21 in test [17]; 0.986 RPP29 per RPP21 in test [18]. Also, the “stoichiometry N” value worked out at 0.956 RPP29 per RPP21 in test [19] and 0.97 RPP29 per RPP21 in [20].

Source of the values: paper PMC3964601 (Biochemistry, 2012).
